A short description of this data set: yeast display, Sf9 membrane polyspecificity reagent, FACS + sequencing; frameworks hold sequencing errors. A digest of the protocol:
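After 36–48 hours of galactose induction, yeast (Saccharomyces cerevisiae BJ5465) displaying a synthetic nanobody library were stained at 4 °C for 1 hour with 10% biotinylated, detergent-solubilized Sf9 membrane reagent. Streptavidin microbeads enriched the stained cells before FACS sorting into low and high (top ~1%) gates on anti-HA and streptavidin fluorescence. Each clone's polyreactivity label reflects its gate of origin.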
For “QVQLVESGGGLVQAGGSLRLSCAASGSTFTGYAMGWYRQAPGKERELVAGISVTGGNTYYADSVKGRFTISRDNAKKTVYLQMNSLKPEDTAVYYCNAVVLSYYAGEMDYWGQGTQVTVSS”, the “polyreactivity (PSR sort gate)” value is given as “low polyreactivity”.

Consider “QVQLVESGGGLVQAGGSLRLSCAASGRLFRHNAMGWYRQAPGKERELVAVISRSTGSTYYADSVKGRFTISRYNAKNTVYLQMNSLKPEDTAVYYCDAKYGSGQRYDYWGQGTQVTVSS”, for which the “polyreactivity (PSR sort gate)” value is listed as “high polyreactivity”.

With “QVQLVESGGGLVQAGGSLRLSCAASGRIFGWYAMGWYRQAPGNERELVAAINRGGSTNYADSVKGRFTISRDNAKNTVYLQMNSLKPEDTAVYYCAVRGVHYTAVTNIKYGYGYWGQGTQVTVSS”, the “polyreactivity (PSR sort gate)” value was “high polyreactivity”.

As for “QVQLVESGGGLVQAGGSLRLSCAASGITIAGYAMGWYRQAPGKERELVAAITIGGRTYYADSVKGRFTISRDNAKNTVYLQMNSLKPVDTAVYYCAAARGFWWYDYWGQGTQVTVSS”, the “polyreactivity (PSR sort gate)” value is “high polyreactivity”.

Regarding “QVQLVESGGGLVQAGGSLSLSCAASGYIVKAYVMGWYRPAPGKVRELVAAITWSGGSTYYADTVKGRFTISRDNAKNTVYLQMNSLKPEDTAVYYCAAYARRYRTPYDFWGQGTQVTLSS”, the “polyreactivity (PSR sort gate)” value was “high polyreactivity”.

On to “QVQLVESGGGLVQAGGSLRLSCAASGFTFARYAMGWYRQAPGKEREFVAAIDKSGGSTYYADSVKGRFTISRDNAKNTVYLQMNSLKPEDTAVYYCAAVYSSYGRRYNSWGQGTQVTVSS”, for which the “polyreactivity (PSR sort gate)” value is recorded as “high polyreactivity”.

Turning to “QVQLVETGGGLVQAGGSLRLSCAASGRIFYYNTMGWYRQAPGKERELVAAISSTASTTYADSVKGRFTISRDNAKNTVYLQMNSLKPEDTAVYYCAADHRYHWAYPRGYYYWGQGTQVTVSS”, the “polyreactivity (PSR sort gate)” value is reported as “high polyreactivity”.

Turning to “QVQLVESGGGLVQAGGSLRLSCAASGFTFGVNAMGWYRQAPGKERELVAVITSGGNTYYADSVKWRFTISRDNAKNTVYLQMNSLKPEDTAVYYCAAYGRASWERDYWGQGTQVTVSS”, the “polyreactivity (PSR sort gate)” value was “low polyreactivity”.

In the case of “QVQLVESGGGLVQAGCSLRLSCAASGATPQNAMGWYRQAPGKERELVAAISKRGGSTYYADSVKGRFTISRDNAKNTVYLQMISLKPEDTAVYYCAKSGRNYYDDDYWGQGTQVTVSS”, the “polyreactivity (PSR sort gate)” value was “high polyreactivity”.

As for “QVQLVESGGGLVQAGGSLRLSCAASGFILYYYVMGWYRQAPGKERELVAAISTSGTSTYYADSVKGRFTISRDNAKNTVYLQMNSLKPEDTAVYYCAAEKDSSDIMEYWGQGTQVTVSS”, the “polyreactivity (PSR sort gate)” value is listed as “high polyreactivity”.

Consider “QVQLVESGGGLVQAGGSLRLSCAASGRIVNFYAMGWYRQAPGKEREFVAAISWSGGSTSYADSVKGRFTISRDTAKKTDYLQMNSLKPEDTAVSYCAVRWSSRSRRYNYWGQGTQVTVSS”, for which the “polyreactivity (PSR sort gate)” value is on record as “high polyreactivity”.

On to “QVQLVESGRGLVQAGGSLRLTGAASGRIFGLYAMGWYRHAPGKERELVAAISRRGGTTYYADSVQGRFTISRDNAKNTVDLQMNSLKPEDTAVYYCAAATVYLSWYYWGQGTQVTVSS”, for which the “polyreactivity (PSR sort gate)” value is given as “high polyreactivity”.

As to “QVQLVESGGGLVQAGGSLRLSCAASGFTLVKYVMGWYIQAPGKEREFVATIRRRGGNTYYADSVKGRFTISRDNAKNTVYLQMNSLKPEDTAVYYCAAKKRSDLRTGDMEYWGQGTQVTVSS”, the “polyreactivity (PSR sort gate)” value is on record as “high polyreactivity”.

For the sequence “QVQLVESGGGLVQAGGSLRLSCAASGIIFQYYAMGWYRQAPGKERELVAAINSGTTTYYADSVKGRFTITRDNAKNTVYLQMNSLKPEDTAVYYWNKDWHSQDFSAYNSYDYWGQGTQVTVSS”, the “polyreactivity (PSR sort gate)” value is reported as “low polyreactivity”.

With “QVQLVESGGGLVQAGGSLRLSCAASGFTLDWYAKGWYRQAPGKERELVAAISSSGRTNYADSVKGRFTISRDNAKNTVYLQMNSLKPEDTAVYYCNRDYPYIWHKGARYWHENDYWGQGTQVTVTS”, the “polyreactivity (PSR sort gate)” value is listed as “low polyreactivity”.

On to “QVQLLESGGGLVQAGRSLCLSCAASGSIIINAMGWYRQAPGKERELVATIRWRGGTTYYADSVKGRFTISRDNAKNTVYLQRNSLKPEDTAVYYCAADRSYYPDPRTTYGYNYWGQGTQVTVSS”, for which the “polyreactivity (PSR sort gate)” value is recorded as “low polyreactivity”.

As for “QVQLVESGGGLVQAGGSLRLSCAASGSTLVWNAMGWYRQAPGKERELVAGITTSGGSTSYADSVKGRFTISRDNAKNTVYLQMNSLKQEDTAVYYCAVDAAIYTNKLDYWGQGTQVTVSS”, the “polyreactivity (PSR sort gate)” value is on record as “low polyreactivity”.

“QVQLVESGGGLVQAGGSLPLSCAASGRIFNYYTMGWYRPAPGKERELVAAISTRGGRTYYADSVKGRFTISRDNAKNSVYFQMNSLKPEDTAVYYCARDIRIRIVYDGIYNYWGQGTQVTVSS”: the “polyreactivity (PSR sort gate)” value was “high polyreactivity”.

“QVQLVESGGGLVQAGGSLRLSCAASGSIFYSNVMGWYRQATGKERELVAAIRYSGVGTYYADSVKGRFTISRDNAKNTVYLQMNSLKPEDTAVYYSNAVTKVGYLRRRDYWGQGTQVTVSS”: the “polyreactivity (PSR sort gate)” value is “low polyreactivity”.

Take “QVQLVESGGGLVQAGGSLRLSCAASGSTFKRYAMGWYRQAPGKEREFVAGISSRGSRTYYADSVKGRFTISRDNAKNTVYLQMNSLKPEDTAGYYCAVSGNHVSPPYGYWGQGTQVTVSS”: the “polyreactivity (PSR sort gate)” value is given as “high polyreactivity”.

In the case of “QVQLVESGGGLVQAGGSLRLSCAASGSIFYPYAMGWYRQAPGKEREFVAVISKGGTNTYYADSVKGRFTISRDNAKNTVYLQMNSLKPEDTAVYYCAARVDTYRAKYYYWGQGTQVTVSS”, the “polyreactivity (PSR sort gate)” value is “high polyreactivity”.

As for “QVQLVESGGALVQAGGSLRLSCASSGFIFGVYDMGWYRQAPGKERELVAAIDSVGSTYYADSVKGRFTISRDNAKNTVYLQMNSLKPEDTAVYYCAKDGSYQAYGYWGQGTQVTVSS”, the “polyreactivity (PSR sort gate)” value is “low polyreactivity”.

Take “QVQLVESGGGLVQAGGSLRLSCAASGSTFFIYAMGWYRQAPGKERELVAAISGSGGTTYYADSVKGRFTISRDNAKNTVYLQMNSLKPEDTAVYYCAARTFSAFWRGGYDYWGQGTQVTVSS”: the “polyreactivity (PSR sort gate)” value was “low polyreactivity”.

On to “QVQLVESGGGLVQAGGSLRLSCAASGFTFFYNAMGRYRQAPGKEREFVAAISGRGGTTYYADSVKGRFTISRDNAKNTVYLEMNSLKPEDTAVYYCAARSVSTLRYTSCKLSDDYWGQGTQVTVSS”, for which the “polyreactivity (PSR sort gate)” value is recorded as “high polyreactivity”.

As for “QVQLVESGGGLVQAGGSLRLSCAASGSIFCYALGWNRQAPGKKRELVAAITGRCTSTYADSVKGRFTISLDNAKNTVYLQTNSLKPEDTAVYYCGPVGWFAEFLFSDIYGYYWGQGTQVTVSS”, the “polyreactivity (PSR sort gate)” value was “low polyreactivity”.

With “QVQLVESGGGLVQAGGSLRLSCAASGRIFPTNAMGWYRQAPGKERVFVAAITWGGGSTYYAVSVKGRFTISRDNAKNTVYLQMNSLKPEDTAVYYCAATGHIVFFRSYDYGYWGQGTQVTVSS”, the “polyreactivity (PSR sort gate)” value was “low polyreactivity”.

As to “QVQLVESGGGLVQAGGSLRLSCAASGRIFGPYAMGWYRQAPGKERELVAAISWSGGSTYYADSVKGRFTISRDNAKNTVYLQMNSLKPEDTAVYYCAARERRVYGDRFYKLDYWGQGTQVTVSS”, the “polyreactivity (PSR sort gate)” value was “high polyreactivity”.

On to “QVQLVESGGGLVQAGGSLRLSCAASGRTFSRYVMGWYRQAPGKERELVATISRSGGSTFYADSVKGRFTISRDTAKNTVYLQMNSLKPEDTAVYYCNKKVQGYQVTYGYCGQGTQVTVSS”, for which the “polyreactivity (PSR sort gate)” value was “high polyreactivity”.

“QVQLVESGGGLVQAGGSLRLSCAASGMIFKFYDMGWYRQAPGKEREWVASISWSGGRTYYADSVKGRFTISRDNAKNTVYLQMNSLKPEDTAVYYCAAGRYYGYGYWGQGTQVTVSS”: the “polyreactivity (PSR sort gate)” value is reported as “high polyreactivity”.

Turning to “QVQLVESGGGLVQAGGSLRLSCAASGSTLASNAKGWYRQAPGKERELVAAIRVSGASTYYADSVKGRFTISRDNAKNTVYLQMNSLKPEDTAVYYCAADYQFGVIYYYWGQGTQVTVSS”, the “polyreactivity (PSR sort gate)” value is “low polyreactivity”.

With “QVQLVESGGGLVQAGGSLRLSCASSGITFRYYAMGWYRQAPGKERELVAAITWSGGSTYYADSVKGRFTISRDNAKNTVYLQMNSLKPEDTAVYYCAADAYVLFYGDWYEFDYWGQGTQVTVSS”, the “polyreactivity (PSR sort gate)” value is “high polyreactivity”.

In the case of “QVQLVESGGGLVQAGGSLRLSCAASGSTFPRNAMGWYRQAPGKERELVAAISYSGGRTYYADSVKGRLRISRDNAKNTVYLQMNSLKPDDTAVYYCAASPGVGDSRYYYWGQGTQVTVSS”, the “polyreactivity (PSR sort gate)” value is reported as “high polyreactivity”.

Take “QVQLVESGGGLVQAGGSLRLSCAASGSIFSFNVMGWYRQAPGKEREMVATITGGGSTNYADSVKGRFTISRDNAKNTVYLQMNSLKPEDTAVYYCNKRNRWTPFYTYDYWGQGTQVTVSS”: the “polyreactivity (PSR sort gate)” value is recorded as “low polyreactivity”.

Take “QVQLVESGGGLVQAGGSLRLSCAASGFTLYRYAMVWYRQAPGKERELVAAISRGSSTNYADSVKGRFTISRDNAKNTVYLQMNSLKPEDTAVYYCAARIVTLGSSRARSFTEYYWGQGTQVTVSS”: the “polyreactivity (PSR sort gate)” value is “high polyreactivity”.

Take “QVQHVESGGGLVQAGGSLRLSCAASGFTFWYYAMGWYRRATGKERELIASISSIGGSTYYADSVKGRYTISRDNAKNTVYLQMNSLKAEDTAVYYCAARYKFLRGGVRRDYWGQGTQVTVSS”: the “polyreactivity (PSR sort gate)” value is “high polyreactivity”.

“QVQLVESGGGLVQAGGSLRLSCAASGRIFVRYDMGWYRQAPGKERELVAAISSSDGSTYYADSVKGRFTISRDNAKNTVYLQMNSLKPEDTAVYYCNADVSLDDYDYWGQGTQVTVSS”: the “polyreactivity (PSR sort gate)” value is reported as “low polyreactivity”.

Regarding “QVQLVESGGGLVQAGGSLRLSCAASGIIFESNAMGWYRQAPGKERELVAAITGRGGRTYYADSVKGRFTISRDNAKNTVYLQTNSLKPEDTAVYYCAADGLRLVPGYKYDYWGQGTQVTVSS”, the “polyreactivity (PSR sort gate)” value was “high polyreactivity”.

“QVQLVESGGGLVQAGGSLRLSCAASGSIFGWYAMGWYRQAPGKERELVAAIDSATSTYYADSVKGRFTISRDNAKNTVYLQKNSLKPEDTAVYYCAVYSWWIDAEYDYWGQGSQVTVSS”: the “polyreactivity (PSR sort gate)” value is “low polyreactivity”.

“QVQLVESGGGLVQAGGSLRLSCAASGSIFFGYGMGWYRQAPGKERELVATITTSGGTYYADAVKGRFTISRDNAKNTVYLQMNSLKPEDTAVYYCAATAAALDGNTIMYYWGQGTQVTVSS”: the “polyreactivity (PSR sort gate)” value is given as “low polyreactivity”.

As to “QVQLVESGGGLVQAGGSLRLSCAASGFTFGYYAMGWYRQAPGKERELVASMTVRGGSTYYADSVKGRFTISRDNAKNTVYLQINSLKPEDTAVYYCAAKRYPTWYPSQRSRYDSWGQGTQVTVSS”, the “polyreactivity (PSR sort gate)” value is “high polyreactivity”.
